Positions of bridges follow the written chain, without caps; N, C: chain ends. No end group written: not given here.
Tests used:
Assay in all cases: radioligand binding
[1] = biological target: T1, human α7 nicotinic acetylcholine receptor stably expressed in the rat pituitary tumor-derived cell line GH4C1 (human, UniProt P36544 23-502); conditions: one partner purified
T1 construct: also called α7 nAChR; human α7 nAChR

[2] = biological target: T2, ligand-binding domain of the human nAChR α9 subunit (human, UniProt Q9UGM1 23-238); conditions: both partners purified
T2 construct: also called α9 LBD; human α9 LBD
T2 sequence (Q9UGM1 23-238): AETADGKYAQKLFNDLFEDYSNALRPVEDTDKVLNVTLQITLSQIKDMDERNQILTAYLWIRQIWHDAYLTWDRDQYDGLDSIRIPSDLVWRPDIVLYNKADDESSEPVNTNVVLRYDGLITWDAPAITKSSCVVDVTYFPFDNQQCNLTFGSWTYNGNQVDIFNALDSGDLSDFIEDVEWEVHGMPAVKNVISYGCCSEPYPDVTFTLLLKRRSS

[3] = biological target: T3, membrane-bound Torpedo californica nicotinic acetylcholine receptor (Torpedo californica); conditions: one partner purified
T3 construct: also called T. californica nAChR; Torpedo nAChR
T3 sequence (P02710 25-461 limits assumed, chain 1 of 4): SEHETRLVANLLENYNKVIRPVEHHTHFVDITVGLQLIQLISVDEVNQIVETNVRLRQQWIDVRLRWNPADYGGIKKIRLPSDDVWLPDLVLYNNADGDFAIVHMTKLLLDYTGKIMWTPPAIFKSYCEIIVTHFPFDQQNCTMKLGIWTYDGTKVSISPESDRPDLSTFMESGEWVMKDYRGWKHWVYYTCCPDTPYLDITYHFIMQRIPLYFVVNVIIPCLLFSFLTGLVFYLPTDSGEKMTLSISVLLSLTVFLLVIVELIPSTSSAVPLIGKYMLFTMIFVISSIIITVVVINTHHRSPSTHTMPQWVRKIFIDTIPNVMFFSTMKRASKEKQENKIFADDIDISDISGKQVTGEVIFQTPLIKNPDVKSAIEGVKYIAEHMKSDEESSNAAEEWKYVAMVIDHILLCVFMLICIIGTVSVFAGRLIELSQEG
T3 sequence (P02712 25-493 limits assumed, chain 2 of 4, further chain): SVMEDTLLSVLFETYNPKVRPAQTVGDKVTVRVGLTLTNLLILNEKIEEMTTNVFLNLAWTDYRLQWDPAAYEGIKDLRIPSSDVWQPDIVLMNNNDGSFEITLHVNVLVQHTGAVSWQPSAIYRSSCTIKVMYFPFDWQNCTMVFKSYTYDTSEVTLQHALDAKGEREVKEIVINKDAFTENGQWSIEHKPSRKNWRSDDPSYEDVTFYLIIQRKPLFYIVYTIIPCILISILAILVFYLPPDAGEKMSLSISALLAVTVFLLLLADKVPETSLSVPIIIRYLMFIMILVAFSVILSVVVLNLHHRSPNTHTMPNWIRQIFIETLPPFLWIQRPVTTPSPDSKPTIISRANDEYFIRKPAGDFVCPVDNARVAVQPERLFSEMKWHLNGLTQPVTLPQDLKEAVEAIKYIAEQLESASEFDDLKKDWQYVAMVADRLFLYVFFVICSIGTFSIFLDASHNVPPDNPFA
T3 sequence (P02714 18-506 limits assumed, chain 3 of 4, further chain): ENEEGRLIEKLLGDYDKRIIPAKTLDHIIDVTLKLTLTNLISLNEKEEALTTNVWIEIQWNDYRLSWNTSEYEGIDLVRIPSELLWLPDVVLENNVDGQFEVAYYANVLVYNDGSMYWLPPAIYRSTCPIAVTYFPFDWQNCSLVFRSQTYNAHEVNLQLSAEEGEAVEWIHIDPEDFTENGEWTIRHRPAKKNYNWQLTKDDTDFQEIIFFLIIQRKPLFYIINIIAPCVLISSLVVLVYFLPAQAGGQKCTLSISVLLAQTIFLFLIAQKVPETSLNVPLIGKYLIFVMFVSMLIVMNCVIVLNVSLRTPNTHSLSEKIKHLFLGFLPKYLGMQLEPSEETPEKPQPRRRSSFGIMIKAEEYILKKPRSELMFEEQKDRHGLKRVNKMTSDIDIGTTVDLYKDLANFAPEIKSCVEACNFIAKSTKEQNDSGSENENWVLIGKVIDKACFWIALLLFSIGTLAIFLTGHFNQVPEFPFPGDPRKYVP
T3 sequence (P02718 22-522 limits assumed, chain 4 of 4, further chain): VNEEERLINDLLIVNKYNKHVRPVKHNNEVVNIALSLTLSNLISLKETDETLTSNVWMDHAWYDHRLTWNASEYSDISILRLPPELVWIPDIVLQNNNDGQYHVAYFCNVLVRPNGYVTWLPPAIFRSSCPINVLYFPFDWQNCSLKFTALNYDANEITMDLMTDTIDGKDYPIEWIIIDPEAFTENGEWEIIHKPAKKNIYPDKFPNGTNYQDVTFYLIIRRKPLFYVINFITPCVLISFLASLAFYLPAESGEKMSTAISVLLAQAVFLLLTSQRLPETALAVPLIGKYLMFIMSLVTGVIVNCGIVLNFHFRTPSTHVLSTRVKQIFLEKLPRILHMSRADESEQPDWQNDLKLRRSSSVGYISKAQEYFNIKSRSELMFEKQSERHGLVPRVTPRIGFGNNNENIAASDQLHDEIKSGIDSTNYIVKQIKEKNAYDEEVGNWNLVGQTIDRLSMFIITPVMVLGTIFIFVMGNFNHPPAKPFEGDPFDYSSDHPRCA

[4] = biological target: T1, human α7 nicotinic acetylcholine …; conditions: one partner purified; remark: listed apart in the source

T1 sequence (P36544 23-502): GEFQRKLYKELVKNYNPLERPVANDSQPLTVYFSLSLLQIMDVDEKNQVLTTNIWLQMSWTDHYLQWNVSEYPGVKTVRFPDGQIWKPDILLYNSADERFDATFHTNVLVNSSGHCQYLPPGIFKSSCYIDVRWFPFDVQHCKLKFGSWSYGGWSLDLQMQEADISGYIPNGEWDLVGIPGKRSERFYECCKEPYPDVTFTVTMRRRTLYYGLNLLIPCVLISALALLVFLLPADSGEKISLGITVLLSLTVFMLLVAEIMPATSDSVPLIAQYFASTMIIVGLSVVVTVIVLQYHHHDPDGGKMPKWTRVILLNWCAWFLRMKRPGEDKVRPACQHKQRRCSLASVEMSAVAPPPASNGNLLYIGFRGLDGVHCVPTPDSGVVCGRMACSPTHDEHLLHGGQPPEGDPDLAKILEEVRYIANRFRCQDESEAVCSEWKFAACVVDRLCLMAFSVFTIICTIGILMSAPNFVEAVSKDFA

| Binder | IC50 [1] [µM] | IC50 [2] [µM] | IC50 [3] [µM] | IC50 [4] [µM] |
| --- | --- | --- | --- | --- |
| CTRTYYTPTRMC (not fully specified (bridges); cysteine pairing not given here, also called peptide 3; cyclic shorter form of Lynx1 fragment) [Lynx1 short (3), shorter loop II fragment of human Lynx1 with terminal Cys, disulfide-cyclised] | 58.9 | – | – | – |
| CKMVRHQRSPYEVVRRMC (disulfide 1-18) | 13.1 | 41.7 | 7.4 | – |
| TTRTYYTPTRMKVSK (also called Lynx1 linear fragment (2); peptide 2) [Lynx1 linear (2), synthetic 15-membered loop II fragment of human Lynx1] | – | 40.7 | – | – |
| CTTRTYYTPTRMKVSKC (not fully specified (bridges); cysteine pairing not given here, also called Lynx1 fragment (1); peptide 1) | 173 | 41.7 | – | 148 |
| CTRTYYTPTRMC (also called Lynx1 linear short (4); peptide 4) [Lynx1 short linear (4), shorter loop II fragment of human Lynx1 with free terminal Cys] | 69.2 | – | – | – |

From publication PMC6616073 (Frontiers in Pharmacology, 2003)
